Measured values from patent publication US11312769B2, “Anti-TMEFF1 antibodies and antibody drug conjugates” (Bluefin BioMedicine, Inc., priority 2017, dated 2022).
Numbering of substitutions follows the chain as printed. Names and notes keep the numbering of the source.

How the values were obtained:
[1] = system: hTMEFF1-ECD recombinant deletion mutants; test: Binding domain determination with hTMEFF1-ECD deletion mutants (Octet); set-up: species or system human; key: FS1—follistatin domain 1; FS2—follistatin domain 2; settings: full length TMEFF1 ECD vs ΔFS1, ΔFS2, ΔFS1&FS2
Source text: TMEFF1 recombinant proteins expressing 3 different deletion mutants, AFS1 (AFollistatin Domain 1), AFS2 (AFollistatin Domain 2) or AFS1&FS2 were used to identify binding domains among different antibodes using an Octet Red instrument with Anti-Penta-His (HIS 1K) biosensors. Expression of the 3 deletion mutants was confirmed by WB analysis. 100 ngs of purified TMEFF1 ECD was run along with unpurified supernatant of transfected CHO cells with the different deletion mutants. HIS 1K biosensors were loaded by submerging the biosensors into wells containing 10 ug/ml of full length TMEFF1 or one of 3 different deletion mutants (AFS1, AFS2 or AFS1&FS2) for 60 seconds. Following the loading step, the biosensors were then dipped for 30 seconds in PBS before immersion for 30 seconds in 200 ul of unpurified recombinant antibodies for 30 seconds. The biosensors were then dipped briefly (30 seconds) in PBS to observe any dissociation. Samples were determined to show binding or no binding by comparing to a control well that contained no recombinant antibody. Differential binding to the deletion mutants allowed for determination of binding sites on TMEFF1 recombinant protein. For cases where the antibody bound all 3 recombinant proteins, the binding is outside of the deleted domains. For the case where binding is observed only on full length TMEFF1 and AFS2, the antibody is binding in the ΔFS1 domain.
26 of the identified antibodies were checked for epitope domain binding by Octet™ using the hTMEFF1-ECD recombinant deletion mutants (see Table 7, below).

recombinant TMEFF1 = target: T1, recombinant TMEFF1 (Homo sapiens, UniProt Q8IYR6); test: Binding competition binning (Octet); settings: seven antibodies, 3 bins
T1 construct: generated to secrete the ECD from CHO cells to assist with biophysical evaluations; His tag (C); made in house; host or cells: CHO (ExpiCHO)
T1 sequence (Q8IYR6 40-330 limits assumed): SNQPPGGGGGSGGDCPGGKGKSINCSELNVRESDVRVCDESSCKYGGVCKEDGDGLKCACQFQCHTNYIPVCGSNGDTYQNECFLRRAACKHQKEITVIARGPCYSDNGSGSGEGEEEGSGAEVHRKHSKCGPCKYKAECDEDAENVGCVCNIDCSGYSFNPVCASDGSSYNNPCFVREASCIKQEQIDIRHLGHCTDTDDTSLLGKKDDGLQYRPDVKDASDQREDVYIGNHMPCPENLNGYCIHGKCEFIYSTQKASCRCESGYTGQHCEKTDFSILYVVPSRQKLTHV
Method: Binding competition among different antibodies was determined using a real-time, interferometry assay on an Octet Red™ instrument with Protein A-conjugated biosensors. To assess whether two antibodies competed for binding to a recombinant TMEFF1 protein, the assay was performed as follows. Protein A biosensors were first submerged into wells containing 10 ug/mL of individual monoclonal antibodies for 5 minutes. Following the capture step, the biosensors were dipped briefly (15 seconds) into buffer and then any unoccupied sites on the biosensor were saturated by submerging them for 5 minutes into wells containing 100 ug/mL of an irrelevant monoclonal antibody. The Octet biosensors were then dipped briefly (15 seconds) in buffer before immersion for 1 minute into wells containing recombinant TMEFF1. The biosensors were dipped briefly (15 seconds) in buffer before immersion for 1 minute into wells containing a second recombinant antibody.
For the control case where the second antibody was the same as the first, there was no increase in signal, because there was no additional binding to the recombinant target.
For the control case where buffer was used instead of the first antibody, no recombinant target bound the non-quenching antibody on the biosensor and no second antibody bound the biosensor.
Competition binning using Octet™ was done with seven antibodies and 3 separate bins were identified.

B1: 29C4: human anti-TMEFF1 IgG1 antibody; VH SEQ ID NO: 118, VL SEQ ID NO: 122 (antibody, V domains shown)
VH: QVQLVESGGGVVQPGRSLRLSCAASGFTFSNYGMHWVRQAPGKGLEWVAVIWYDGGPKFYADSVKGRFTISRDNSKNTLYLQMNSLRAEDTAVYYCARSYCGGDCYPFDYWGQGDLVTVSS
VL: DIQMTQSPSSLSASVGDRVTITCRASQGISNYLAWYQQKPGKVPKLLIYAASTLQSGVPSRFSGSGSGTDFTLTISSLQPEDVATYYCQKYYSAPWTFGQGTKVEIK
Binding region (epitope domain binding) [1]: FS1

B2: 37G7: human anti-TMEFF1 IgG1 antibody; VH SEQ ID NO: 85, VL SEQ ID NO: 88 (antibody, V domains shown)
VH: B1 VH with S30T, N31S, I51V, D54E, G56S, P57S, A61V, T69I, S99A, D115T
VL: B1 VL with Y92N
Binding region (epitope domain binding) [1]: FS1

B3: M17: human anti-TMEFF1 IgG1 antibody; VH SEQ ID NO: 79, VL SEQ ID NO: 82 (antibody, V domains shown)
VH: QVQLVESGGGVVQPGRSLRLSCAASGFTFRSYGMHWVRQAPGKGLEWVALIWYDGGDQYYADSVKGRFTISRDSSKSTLYLQMNSLRAEDTAVYYCARAQCGDDCYPFDYWGQGTLVTVSS
VL: B1 VL with S30Y, Y92N, A94D, V104L
Binding region (epitope domain binding) [1]: FS1

B4: 35B1: human anti-TMEFF1 IgG1 antibody; VH SEQ ID NO: 66, VL SEQ ID NO: 70 (antibody, V domains shown)
VH: QVQLVESGGGVVQPGRSLRLSCAASGFTFTTYGMHWVRQAPGKGLEWVAVVWFEGNSKFYIDSVKGRFIISRDNSKNTLFLQMNSLRAEDTAVYYCARANCGADCYPFDYWGQGTLVTVSS
VL: B1 VL with T72S, Q79R, Y92N
Binding region (epitope domain binding) [1]: FS1

B5: 10C10: human anti-TMEFF1 IgG1 antibody; VH SEQ ID NO: 96, VL SEQ ID NO: 93 (antibody, V domains shown)
VH: QVQLVESGGGVVQPGRSLRLSCATSGFTFSIYGMHWVRQAPGKGLEWVAIIWYDGNKKYYADSVKGRFTISRDNSKNTLYLQMNSLRAEDTAVYYCARDPYTSSLDYWGQGTLVTVSS
VL: DIQLTQSPSFLSASVGDRVTITCRASQGISSYLAWYQQKPGKAPKLLIYAASTLQSGVPSRFSGSGSGTEFTLTISSLQPEDFATYYCQQLNSYPLTFGGGTKLEIK
Binding region (epitope domain binding) [1]: FS1

B6: 19D9: human anti-TMEFF1 IgG1 antibody; VH SEQ ID NO: 99, VL SEQ ID NO: 101 (antibody, V domains shown)
VH: B5 VH with T24A, I50N, N56S, A92S
VL: B5 VL with A50T
Binding region (epitope domain binding) [1]: FS1

B7: 18C2: human anti-TMEFF1 IgG1 antibody; VH SEQ ID NO: 89, VL SEQ ID NO: 93 (antibody, V domains shown)
VH: B5 VH with T24A, K43M, W52R, N56S, K57N, Q82R, Y101F
VL: B5 VL
Binding region (epitope domain binding) [1]: FS1

B8: M1F1: human anti-TMEFF1 IgG1 antibody; VH SEQ ID NO: 9, VL SEQ ID NO: 13 (antibody, V domains shown)
VH: QVQLQESGPGLVKPSETLSLTCAVSGYSISSGYFWGWIRQPPGKKLEWIGSIYHSGSTYYNPSLKSRVTMSVDTSKNQFSLKLSSVTAADTAVYYCAREGDCSGGICYWYFDLWGRGTLVTVSS
VL: EIVMTQSPATLSVSPGERATLSCRASQSVSSNLAWYQQKPGQAPRLLIYGASTRATGIPARFSGSGSGTEVTLTISSLQSEDFAVYYCQQYNKWPLTFGGGTKVEIK
Competition binning (epitope bin) (recombinant TMEFF1): bind a region different from FS1 or FS2 and compete with each other | Binding region (epitope domain binding) [1]: Other

B9: M1H1: human anti-TMEFF1 IgG1 antibody; VH SEQ ID NO: 9, VL SEQ ID NO: 78 (antibody, V domains shown)
VH: B8 VH
VL: B5 VL with L4M, F10S, S31N, A43V, E70D, T85V, L91Y, S93K, Y94W
Binding region (epitope domain binding) [1]: other

B10: M33F: human anti-TMEFF1 IgG1 antibody; VH SEQ ID NO: 9, VL SEQ ID NO: 141 (antibody, V domains shown)
VH: B8 VH
VL: B5 VL with L4M, F10S, S31N, A43V, F71V, P80S, T85V, L91Y, S93K, Y94W
Binding region (epitope domain binding) [1]: other

B11: M35: human anti-TMEFF1 IgG1 antibody; VH SEQ ID NO: 134, VL SEQ ID NO: 138 (antibody, V domains shown)
VH: QVQLQESGPGLVKPSGTLSLTCAVSGGSISSSNWWSWVRQPPGKGLEWIGEIYHSGSTNYNPSLKSRVTISVDKSKNQFSLKLSSVTAADTAVYYCATMVRGRYYYYGMDVWGQGTTVTVSS
VL: DIVMTQSPLSLPVTPGEPASISCRSSQSLLHSDGYNFLDWYLQKPGQSPQFLIYLGSNRASGVPDRFSGVGSGTDFTLQISRVEAEDFGVYYCMQALQAPWTFGQGTKLEIK
Binding region (epitope domain binding) [1]: FS1

B12: 3H9: human anti-TMEFF1 IgG1 antibody; VH SEQ ID NO: 114, VL SEQ ID NO: 117 (antibody, V domains shown)
VH: EVQLVESGGGLVKPGGSLRLSCAASGFVFSYAWMNWVRQAPGKGLEWVGRIKSKTEGGTTDNAAPVKGRFTISREDSKNTLYLQLNSLKIEDTAVYYCTTGRIAAAGFDYWGQGTLVTVSS
VL: DAVVTQESALTTSPGETVTLTCRSSTGTVTTSNYANWVQEKPDHLFTGLIAGTNNRAPGVPARFSGSLIGDKAALTITGAQTEDEAIYFCALWYSNHWVFGGGTKLTVLG
Binding region (epitope domain binding) [1]: other

B13: 11F9: human anti-TMEFF1 IgG1 antibody; VH SEQ ID NO: 71, VL SEQ ID NO: 75 (antibody, V domains shown)
VH: B12 VH with V28T, N35S, E56D, N62Y, E75D, G112A
VL: B12 VL with A74V
Binding region (epitope domain binding) [1]: other
